We go through 23 sequences from the Immune Epitope Database (IEDB).

A value given as a limit tells only on which side of the number the result lay.

The target of assay [1] is HLA-A*02:01. The assay can be described thus: IEDB peptide-MHC binding, cellular MHC/competitive/fluorescence; ≥ and ≤ were set here for values at or beyond the usual limits of such assays.
The next assay addresses HLA-A*02:06. The assay is described as above.
The next assay deals with HLA-A*02:02. The assay can be described thus: IEDB peptide-MHC binding, purified MHC/competitive/radioactivity; ≥ and ≤ were set here for values at or beyond the usual limits of such assays.
A further assay has as its target HLA-A*02:03. Described as above.
For a further assay, the target named is HLA-A*68:02. The description is as above.
In assay [2] the target is HLA-A*02:01. The assay is described as above.
Setting [3] is: source organism: Vaccinia virus WR.
Where [4] appears, read: source organism: Mammarenavirus lassaense.
[5] abbreviates: source organism: Hepacivirus hominis.
Setting [6] is: source organism: Mammarenavirus whitewaterense.
[7] abbreviates: source organism: Influenza A virus.

Regarding RVKQWVMDT, the IC50 is 20300 nM with HLA-A*02:01 [1] (setting [3]); 13500 nM with HLA-A*02:06 (setting [3]); 3630 nM in the assay with HLA-A*02:02 (setting [3]); 3.6 nM with HLA-A*02:03 (setting [3]); 603 nM with HLA-A*68:02 (setting [3]).

Take DLFMSHVKSV: the IC50 was 19800 nM with HLA-A*02:06 (setting [3]); 2490 nM with HLA-A*02:01 [2] (setting [3]); 3380 nM with HLA-A*02:02 (setting [3]); 42 nM with HLA-A*02:03 (setting [3]); 1940 nM in the assay with HLA-A*68:02 (setting [3]).

Take YCSNIKLQVV: the IC50 came out at 8600 nM with HLA-A*02:01 [1] (setting [4]); 7130 nM with HLA-A*02:06 (setting [4]); 1240 nM in the assay with HLA-A*02:02 (setting [4]); 802 nM with HLA-A*02:03 (setting [4]); 1170 nM with HLA-A*68:02 (setting [4]).

For the sequence LINLVQYRI, the IC50 was 5900 nM in the assay with HLA-A*02:01 [1] (setting [3]); 5340 nM in the assay with HLA-A*02:06 (setting [3]); 311 nM in the assay with HLA-A*02:02 (setting [3]); 583 nM with HLA-A*02:03 (setting [3]); 1730 nM in the assay with HLA-A*68:02 (setting [3]).

Consider VLIVMLLFA, for which the IC50 came out at 8420 nM with HLA-A*02:06 (setting [5]); 2360 nM with HLA-A*02:01 [2] (setting [5]); 1620 nM with HLA-A*02:02 (setting [5]); 435 nM with HLA-A*02:03 (setting [5]); 4550 nM in the assay with HLA-A*68:02 (setting [5]).

For the sequence EVTPEYIKDL, the IC50 with HLA-A*02:01 [1] (setting [3]) was 6500 nM; in the assay with HLA-A*02:06 (setting [3]) it was 7680 nM; with HLA-A*02:02 (setting [3]), 1520 nM; in the assay with HLA-A*02:03 (setting [3]) it was 2270 nM; with HLA-A*68:02 (setting [3]), 1230 nM.

On to FLRPVLKAM, for which the IC50 was determined as 11900 nM with HLA-A*02:01 [1] (setting [3]); 5480 nM in the assay with HLA-A*02:06 (setting [3]); 1380 nM with HLA-A*02:02 (setting [3]); 9.8 nM in the assay with HLA-A*02:03 (setting [3]); 2470 nM in the assay with HLA-A*68:02 (setting [3]).

As to TIAVSVYGAI, the IC50 worked out at 5390 nM with HLA-A*02:06 (setting [3]); 2560 nM in the assay with HLA-A*02:01 [2] (setting [3]); 1550 nM with HLA-A*02:02 (setting [3]); 582 nM with HLA-A*02:03 (setting [3]); 618 nM with HLA-A*68:02 (setting [3]).

As to VISTIANSNI, the IC50 with HLA-A*02:01 [1] (setting [3]) turned out to be 7800 nM; in the assay with HLA-A*02:06 (setting [3]), 5160 nM; in the assay with HLA-A*02:02 (setting [3]) it was 282 nM; with HLA-A*02:03 (setting [3]), 845 nM; with HLA-A*68:02 (setting [3]) it was 788 nM.

Take KTVAGSFAS: the IC50 with HLA-A*02:01 [1] (setting [6]) stood at 5560 nM; with HLA-A*02:06 (setting [6]) it was 9140 nM; with HLA-A*02:02 (setting [6]) it was 1600 nM; with HLA-A*02:03 (setting [6]), 3820 nM; with HLA-A*68:02 (setting [6]), 2990 nM.

As for LLGLILFVL, the IC50 came out at 8130 nM with HLA-A*02:06 (setting [3]); 724 nM with HLA-A*02:01 [2] (setting [3]); 266 nM with HLA-A*02:02 (setting [3]); 1860 nM with HLA-A*02:03 (setting [3]); 906 nM with HLA-A*68:02 (setting [3]).

Turning to CLKNEGVSGL, the IC50 with HLA-A*02:01 [1] (setting [3]) came to 6300 nM; with HLA-A*02:06 (setting [3]) it was 14100 nM; with HLA-A*02:02 (setting [3]), 127 nM; in the assay with HLA-A*02:03 (setting [3]), 25 nM; with HLA-A*68:02 (setting [3]) it was 2080 nM.

For ELWARISSSL, the IC50 in the assay with HLA-A*02:06 (setting [3]) came out at 9300 nM; with HLA-A*02:01 [2] (setting [3]) it was 1320 nM; in the assay with HLA-A*02:02 (setting [3]), 175 nM; with HLA-A*02:03 (setting [3]), 324 nM; in the assay with HLA-A*68:02 (setting [3]) it was 22 nM.

Consider YTKHSMLTNA, for which the IC50 amounted to 38300 nM with HLA-A*02:01 [1] (setting [3]); 7340 nM with HLA-A*02:06 (setting [3]); 3900 nM with HLA-A*02:02 (setting [3]); 141 nM in the assay with HLA-A*02:03 (setting [3]); 1420 nM with HLA-A*68:02 (setting [3]).

As to LDFAKVASV, the IC50 came to 10600 nM with HLA-A*02:06 (setting [6]); 4740 nM with HLA-A*02:01 [2] (setting [6]); 61 nM in the assay with HLA-A*02:02 (setting [6]); 453 nM with HLA-A*02:03 (setting [6]); 296 nM in the assay with HLA-A*68:02 (setting [6]).

With NASKTINAL, the IC50 with HLA-A*02:01 [1] (setting [3]) was determined as 26800 nM; with HLA-A*02:06 (setting [3]), 6110 nM; with HLA-A*02:02 (setting [3]), 117 nM; with HLA-A*02:03 (setting [3]) it was 708 nM; in the assay with HLA-A*68:02 (setting [3]), 52 nM.

Take IAVANCVRNL: the IC50 is 13600 nM with HLA-A*02:01 [1] (setting [3]); 9110 nM with HLA-A*02:06 (setting [3]); 57 nM in the assay with HLA-A*02:02 (setting [3]); 467 nM with HLA-A*02:03 (setting [3]); 465 nM with HLA-A*68:02 (setting [3]).

In the case of DLNRMPTDML, the IC50 in the assay with HLA-A*02:01 [1] (setting [3]) turned out to be 17300 nM; with HLA-A*02:06 (setting [3]), 47400 nM; with HLA-A*02:02 (setting [3]), 1250 nM; in the assay with HLA-A*02:03 (setting [3]), 2190 nM; in the assay with HLA-A*68:02 (setting [3]) it was 3940 nM.

As to GLILFVLAL, the IC50 with HLA-A*02:06 (setting [3]) stood at 7810 nM; in the assay with HLA-A*02:01 [2] (setting [3]), 175 nM; with HLA-A*02:02 (setting [3]), 129 nM; with HLA-A*02:03 (setting [3]), 452 nM; with HLA-A*68:02 (setting [3]), 4340 nM.

As to FTSYKRFVT, the IC50 with HLA-A*02:01 [1] (setting [3]) is at least 70000 nM; in the assay with HLA-A*02:06 (setting [3]), 12400 nM; with HLA-A*02:02 (setting [3]), 2330 nM; with HLA-A*02:03 (setting [3]) it was 3380 nM; with HLA-A*68:02 (setting [3]), 452 nM.

As to IVSSYVCSGL, the IC50 was 6200 nM with HLA-A*02:01 [1] (setting [7]); 12700 nM with HLA-A*02:06 (setting [7]); 161 nM in the assay with HLA-A*02:02 (setting [7]); 795 nM with HLA-A*02:03 (setting [7]); 767 nM with HLA-A*68:02 (setting [7]).

Turning to EIMDKEQLL, the IC50 in the assay with HLA-A*02:06 (setting [3]) is 26400 nM; in the assay with HLA-A*02:01 [2] (setting [3]) it was 3960 nM; with HLA-A*02:02 (setting [3]), 183 nM; with HLA-A*02:03 (setting [3]), 427 nM; with HLA-A*68:02 (setting [3]) it was 291 nM.

For TMKAIEKDRL, the half-inhibitory concentration (IC50) with HLA-A*02:01 [1] (setting [3]) is 17500 nM; in the assay with HLA-A*02:06 (setting [3]), at least 70000 nM; with HLA-A*02:02 (setting [3]) it was 171 nM; in the assay with HLA-A*02:03 (setting [3]), 1060 nM; with HLA-A*68:02 (setting [3]) it was 1570 nM.

The IC50 is the concentration needed to halve the response being measured.
